Biological target: the molecule itself
Assay: reverse-phase HPLC with TOF mass detection; peptide 7 of an earlier (old) synthetic batch in PBS; Agilent HPLC Infinity II 1290 with TOF 6230, 5-65% acetonitrile/water with 0.1% TFA, 40 C

B1: peptide 7 (CQGRVEVLYRGSWGTV), SRCR-domain-derived peptide of DMBT1 (peptide)
peptide: CQGRVEVLYRGSWGTV
notes: Free N-terminal cysteine; earlier synthetic batches formed disulfide-linked homodimers in PBS; also called Pep7
B1: binds.
